Test results as given in PMC3148250, “Structural Basis for Sequence Specific DNA Binding and Protein Dimerization of HOXA13” (PLoS ONE, 2011).

Columns and labels:
[1] = molecular target: the molecule itself; test: SEC-MALS; A13DBD bound to 11-mer DNA duplex; Superdex 75 HR 10/30 at 4°C, calibrated with mass standards, in line with MALS and refractive index; mass as a function of protein concentration; dimer to monomers
[2] = molecular target: the molecule itself; test: 15N NMR relaxation (rotational correlation time); A13DBD bound to 11-mer DNA duplex, about 0.5 mM, 310 K, 20 mM NaPO4, 5 mM MgCl2, pH 6.0; R2/R1 gives the rotational correlation time and a spherical mass
[3] = molecular target: the molecule itself; test: not stated; K343E mutant of A13DBD; the method is not named for this mutant (the neighbouring mutants were tested by SEC/MALS of the DNA complex)

B1: HOXA13 DNA binding domain (A13DBD) F344A (domain or fragment)
chain: not shown
notes: numbers count on: GenBank AAB03322.1; Made by QuikChange mutagenesis of pHisA13DBD; The luciferase assay used the same mutation in full-length HOXA13 (pCAGGS-HOXA13) in NG108-15 cells; source: E. coli BL21(DE3), purified (His-tag purification, thrombin cleavage, Superdex-75)
- fold weakening of the dimerization affinity against wild type [1]: ≥ 10 fold

B2: HOXA13 DNA binding domain (A13DBD), wild type (domain or fragment)
chain: not shown
notes: numbers count on: GenBank AAB03322.1; The introduction gives residues 314-386 for A13DBD, the methods G320-S386; Cloned in pET-15b; also called HOXA13 homeodomain; WT; source: E. coli BL21(DE3), purified (His-tag purification, thrombin cleavage, Superdex-75)
- Kd [1]: < 500 nM
- stoichiometry N [2]: 2

B3: HOXA13 DNA binding domain (A13DBD) K343E (domain or fragment)
chain: not shown
notes: numbers count on: GenBank AAB03322.1; source: E. coli BL21(DE3), purified (His-tag purification, thrombin cleavage, Superdex-75)
- fold lowering of the dimerization affinity against wild type [3]: ~5 fold
